Source: paper PMC7017353, “Delineating the Molecular Basis of the Calmodulin–bMunc13-2 Interaction by Cross-Linking/Mass Spectrometry—Evidence for a Novel CaM Binding Motif in bMunc13-2” (Cells, 2020)
One block for each substance: values may come before it.

What was measured:
[1] = molecular target: CaM (source not told for this experiment) (UniProt P62157); assay: native gel or EMSA; native gel electrophoresis of the CaM/segment-A complex (Figure S5)
[2] = molecular target: CaM (source not told for this experiment) (UniProt P62157); assay: native MS; 10 µM CaM and segment-A in 300 mM ammonium acetate pH 7.0; residual Ca2+ around 5 µM
[3] = molecular target: Photo-Met labeled CaM (UniProt P0DP23); assay: cross-linking; photo-cross-linking of photo-Met-labeled CaM (10 µM) with 10 µM segment-A, -B or -C; 20 mM HEPES, 250 mM NaCl, 0.5 mM TCEP, 7.5% glycerol, pH 7.2, 25 °C; free Ca2+ 75 nM to 1 mM (EGTA system); UV-A 360 nm; SDS-PAGE and LC-MS/MS
[4] = molecular target: CaM (bovine brain) (bovine) (UniProt P62157); assay: cross-linking; chemical cross-linking (BS3, DSBU 1 mM; s-GMBS in two steps) of CaM (bovine brain, 10 µM) with 10 µM segment-A; 20 mM HEPES, 230 mM NaCl, 0.5 mM TCEP, 7.5% glycerol, pH 7.2, 25 °C; 750 nM and 1 mM Ca2+; SDS-PAGE and LC-MS/MS
[5] = molecular target: Photo-Met labeled CaM (UniProt P0DP23); assay: cross-linking; photo-cross-linking of photo-Met-labeled CaM with segment-B, SDS-PAGE analysis (data not shown)
[6] = molecular target: biotinylated photo-Met-labeled CaM (UniProt P0DP23); assay: SPR; biotinylated photo-Met-CaM immobilised on streptavidin on a PEG-biotin chip; segment-C and variants injected at 0.1–1 µM in 20 mM HEPES, 230 mM NaCl, 0.5 mM TCEP, pH 7.2; 30 µL/min

stoichiometry N (segment-A per CaM) [1]: 1
stoichiometry N (segment-A per CaM) [2]: 1
stoichiometry N (segment-A per CaM) [3]: 1
stoichiometry N (segment-A per CaM) [4]: 1
Substance: bMunc13-2 segment-A (aa 367–780) (from UniProt Q62769-2 367-780) (domain or fragment)

stoichiometry N (segment-B per CaM) [5]: 1
Substance: bMunc13-2 segment-B (aa 367–903) (from UniProt Q62769-2 367-903) (domain or fragment)

Kd [6]: 159 nM
stoichiometry N (segment-C per CaM) [3]: 1
Substance: bMunc13-2 segment-C (aa 703–742) (peptide)
